B1: BCL10 full-length fused to mEos3.1 [human] / itself (parent)
chain: MEPTAPSLTEEDLTEVKKDALENLRVYLCEKIIAERHFDHLRAKKILSREDTEEISCRTSSRKRAGKLLDYLQENPKGLDTLVESIRREKTQNFLIQKITDEVLKLRNIKLEHLKGLKCSSCEPFPDGATNNLSRSNSDESNFSEKLRASTVMYHPEGESSTTPFFSTNSSLNLPVLEVGRTENTIFSSTTLPRPGDPGAPPLPPDLQLEEEGTCANSSEMFLPLRSRTVSRQ

In this test the parent is B1. The test is described as follows: DAmFRET (Weibull fit) in yeast cells, homotypic self-assembly. Conditions: with itself; read off a plot.
In the case of chain 1 R58Q, the screen value worked out at 0.38.

On to chain 1 R58G, for which the screen value was found to be 0.34.

For chain 1 R58L, the screen value amounted to 0.35.

Values taken from paper PMC9342958.
